Data on 3 molecules can be found in patent US6410775.

Values joined by “and” are separate entries in the source; they are usually repeats but may differ in a detail not shown here. Equal values may be shown once. Square brackets hold non-standard residues; d marks the D form. Ends that are not written are not given here. αMeP = C[C@@]1(C(=O)O)CCCN1

In experiment [1] the target is ACA-6501 aPL antibody. Briefly: aPL antibody binding of modified 3B10 peptides.
The target in experiment [2] is ACA-6501 aPL antibody. Briefly: competitive ELISA on plate-bound tetravalent 3B10, ACA-6501 serum. For orientation: ELISA stands for enzyme-linked immunosorbent assay.
Experiment [3] addresses ACA-6501 aPL antibody. Description: competitive ELISA on plate-bound tetravalent 3B10.
For experiment [4], the target named is ACA-6501 aPL antibody. Briefly: competitive ELISA on CL/β2-GPI plates, peptide monomer 1 mg/mL, affinity-purified ACA.
For experiment [5], the target named is ACA-7005 aPL antibody. Described as above.
The target of experiment [6] is ACA-6641 aPL antibody. Described as above.
In experiment [7] the target is ACA-6903 aPL antibody. The description is as above.
Experiment [8] deals with ACA-6626 aPL antibody. Described as above.
In experiment [9] the target is ACA-6638 aPL antibody. The experiment is described as above.
Experiment [10] addresses ACA-7004 aPL antibody. Described as above.
The target of experiment [11] is ACA-6644 aPL antibody. Described as above.
Experiment [12] has as its target ACA-6701 aPL antibody. The experiment is described as above.
Experiment [13] deals with nine affinity purified ACA antibodies. Briefly: competitive ELISA on CL/β2-GPI plates, peptide monomer 1 mg/mL; average of nine ACA.
In experiment [14] the target is ACA-6635 aPL antibody. Briefly: competitive ELISA, ACA serum on cardiolipin/β2-GPI-coated plates.
Experiment [15] addresses ACA-6501 aPL antibody. The experiment is described as above.
The target of experiment [16] is ACA-7005 aPL antibody. The description is as above.
Experiment [17] concerns the target ACA-6641 aPL antibody. The experiment is described as above.
Experiment [18] addresses ACA-6903 aPL antibody. The experiment is described as above.
Experiment [19] deals with ACA-6626 aPL antibody. The description is as above.
In experiment [20] the target is ACA-6638 aPL antibody. Described as above.
Experiment [21] deals with ACA-7004 aPL antibody. The experiment is described as above.
In experiment [22] the target is ACA-6701 aPL antibody. Described as above.
Experiment [23] deals with ACA-6501 aPL antibody. Description: competitive ELISA I50; antibody not given, ACA-6501 serum on CL/β2-GPI assumed (Ex. 4B).
Experiment [24] concerns the target ACA-6635 aPL antibody. Briefly: competitive ELISA, peptide at 1.8 mg/mL; members from Table 7.
The target of experiment [25] is ACA-6501 aPL antibody. Described as above.
For experiment [26], the target named is ACA-7005 aPL antibody. Described as above.
Experiment [27] concerns the target ACA-6641 aPL antibody. Described as above.
Experiment [28] has as its target ACA-6903 aPL antibody. Described as above.
Experiment [29] deals with ACA-6626 aPL antibody. The description is as above.
For experiment [30], the target named is ACA-6638 aPL antibody. The description is as above.
Experiment [31] concerns the target ACA-7004 aPL antibody. Described as above.
In experiment [32] the target is ACA-6644 aPL antibody. Described as above.
Experiment [33] deals with ACA-6701 aPL antibody. The description is as above.
Experiment [34] has as its target ACA sera [1]-[10] of Table 7. Description: competitive ELISA; mean ± sd over the ten ACA sera.
The target of experiment [35] is ACA-6644 aPL antibody. Briefly: competitive ELISA, ACA serum (printed 664) on cardiolipin/β2-GPI-coated plates.

The IC50 is the concentration that gives 50% inhibition. Read a low IC50 as greater potency.

B1: peptide 727 (3B10 with αMe-Pro at the 9 position) (peptide)
peptide: AGPCLLLA[αMeP]DRCPG
modifications: cysteine pairing not given here
On to B1, for which, in the experiment with ACA-6501 aPL antibody [1], the fold enhancement in immunoreactivity against 3B10 came out at 6 fold. Also, the fold increase in activity against native 3B10 with ACA-6501 aPL antibody [2] stood at 4 fold.

B2: peptide 139 (3B10 lacking the framework Ala-Gly at the amino terminus) (peptide)
peptide: PCLLLAPDRCPG
With B2, the fold increase of the 50% inhibition concentration against peptide 142 with ACA-6501 aPL antibody [3] amounted to 8 fold.

B3: peptide ACA-6641/3G3 … (LJP 688) (peptide)
peptide: AGPCLGVLGKLCPG
For B3, the percent inhibition with ACA-6501 aPL antibody [4] is 86%; in the experiment with ACA-7005 aPL antibody [5], 95%; with ACA-6641 aPL antibody [6] it was 93%; with ACA-6903 aPL antibody [7] it was 100%; with ACA-6626 aPL antibody [8], 100%; with ACA-6638 aPL antibody [9], 100%. Besides, the percent inhibition with ACA-7004 aPL antibody [10] is 100%; in the experiment with ACA-6644 aPL antibody [11], 100%; with ACA-6701 aPL antibody [12], 100%; with ACA-6635 aPL antibody [24], greater than 80%; with ACA-6501 aPL antibody [25], 80%; in the experiment with ACA-7005 aPL antibody [26] it was greater than 80%. Besides, the percent inhibition with ACA-6641 aPL antibody [27], in the experiment with ACA-6903 aPL antibody [28], in the experiment with ACA-6626 aPL antibody [29], with ACA-6638 aPL antibody [30], with ACA-7004 aPL antibody [31] and with ACA-6644 aPL antibody [32] was greater than 80% throughout. Moreover, in the experiment with ACA-6701 aPL antibody [33], the percent inhibition was greater than 80%. Also, the percent inhibition (Ave.) in experiment [13] was 97%. In addition, the 50% inhibitory concentration (IC50) was 1000 µg/mL with ACA-6635 aPL antibody [14]; 890 µg/mL and 1100 µg/mL with ACA-6501 aPL antibody [15]; 750 µg/mL with ACA-7005 aPL antibody [16]; 890 µg/mL and 510 µg/mL with ACA-6641 aPL antibody [17]; 800 µg/mL with ACA-6903 aPL antibody [18]; 1090 µg/mL with ACA-6626 aPL antibody [19]. The IC50 with ACA-6638 aPL antibody [20] stood at 810 µg/mL; with ACA-7004 aPL antibody [21] it was 670 µg/mL; in the experiment with ACA-6701 aPL antibody [22], 1070 µg/mL; in the experiment with ACA-6501 aPL antibody [23], 850 µg/mL; in [34] it was 860 µg/mL; with ACA-6644 aPL antibody [35], 760 µg/mL.
